The source of these data is paper PMC2603141 (Virology, 2008).

Series [1] concerns the molecule itself. The experiment in a line: negative-stain electron microscopy.
Series [2] concerns the molecule itself. The experiment in a line: reducing and non-reducing SDS-PAGE.

B1: PIV 5 hemagglutinin-neuraminidase (HN) ectodomain beginning at residue 56, HN(ecto56) (domain or fragment)
chain: SPSSGLGSITDLLNNILSVANQIIYNSAVALPLQLDTLESTLLTAIKSLQTSDKLEQNCSWSAALINDNRYINGINQFYFSIAEGRNLTLGPLLNMPSFIPTATTPEGCTRIPSFSLTKTHWCYTHNVILNGCQDHVSSNQFVSMGIIEPTSAGFPFFRTLKTLYLSDGVNRKSCSISTVPGGCMMYCFVSTQPERDDYFSAAPPEQRIIIMYYNDTIVERIINPPGVLDVWATLNPGTGSGVYYLGWVLFPIYGGVIKGTSLWNNQANKYFIPQMVAALCSQNQATQVQNAKSSYYSSWFGNRMIQSGILACPLRQDLTNECLVLPFSNDQVLMGAEGRLYMYGDSVYYYQRSNSWWPMTMLYKVTITFTNGQPSAISAQNVPTQQVPRPGTGDCSATNRCPGFCLTGVYADAWLLTNPSSTSTFGSEATFTGSYLNTATQRINPTMYIANNTQIISSQQFGSSGQEAAYGHTTCFRDTGSVMVYCIYIIELSSSLLGQFQIVPFIRQVTLS
modifications: carbohydrate at 4 N-linked glycosylation sites; inter-chain disulfide bond (covalent dimers)
By stoichiometry N is commonly meant the number of molecules, sites or subunits per partner or assembly. For B1, the figures for the “stoichiometry N” value in series [1] and in series [2] were 4 and 2, respectively.
